Experimental findings from PMC11510448 are described below.

The target in experiment [1] is human Cu/Zn Superoxide Dismutase 1, A4V variant (Flag-SOD1-6His) (human) (UniProt P00441). In words: SEC; gel filtration of the Ni-NTA eluate on a custom-made calibrated Sephacryl S-200 column (1.2 x 100 cm), TBS pH 7.4, UV detection at 280 nm. In general terms: In gel filtration, larger molecules generally elute earlier.
Experiment [2] has the same target. In words: native gel or EMSA; Native-PAGE of selected gel filtration fractions, SDS-free 10% gel, samples not boiled, run at RT, Coomassie stain; ESTDZ2 (ca. 28 kDa) as size standard.

Broadly, the stoichiometry N is a count of units in the complex or per binding partner. Take “human Cu/Zn Superoxide Dismutase 1, A4V variant (Flag-SOD1-6His) (from UniProt P00441 6-154) (enzyme)”: the stoichiometry N in experiment [1] and in experiment [2] was 2 in each case.
